Assay results published in the DeepSol protein solubility set.

Assay: soluble on expression in E. coli; label from the status in PepcDB or PDB records
With “MAHHHHHHMIAATQVPGLNEISRQAASGSPFPQVLPPRYPANKVSTAGLQSSNHGAAQLVHDVNNVAAEIHHPLITAADYSDRRQLLSHITVLSGQLQRAQLLLRNTPSCVVSDADIARFDPLIAQAEVERLDSALAQLSLLHEMERARSGSLEAEQQQLREERNQLVARVDTLESRSVALETENVQLRSALEVAQQELQVLRVGESALGNKLHAIEQLQRDGGRFDGVNVVIAPPRAVCSTAAKELQLQENIQRLSLLLDMMMDPMYIAFDAGVVWITETEHHRAGGQVCGAALSNAPHDSEELTTTVGGNSPLGNASDATLPQDVVANPPHVVASEVDISLLQQQQQELCRQLDAVRESCRVAERNQERLQDLLLEEQRRTEAMAQEHCKQLQCVHDRVVHERRQVVESLVAEVEEKMRNAFRDGRLYQKQLDERLIHRRSSSTFQSRSGHSSARSTPFASRHKAFGGNGTCKGDGDANSSRSARSPILGG” the “soluble on expression in E. coli” value was “not soluble”. In the case of “MNQKLLKLENLLRFHTICRQVHSPSQRRLLAWCRHGFAPASSVWRDLLGARSWQTDMLIGSALHQHRLLVTKKEKRPPRSQLSPVKTKKEVEVWVGMTVEDLASAMAKDIDCVYEALLNTAIDVDSLEANSHLDEVWIKEVIKKAGMKLKWSKLKQERIRENKDAVRRPGTDPALLKPRSPVVTVMGHVDHGKTTLLDKLRETQVAAMEVGGITQHIGAFLVSLPSGEKITFLDTPGHAAFSAMRARGAQVTDIVVLVVAADDGVMKQTVESIQHAKDAEVPIILAINKCDKTDADPEKVKKELLAYDVVCEEYGGDVQAVHVSALTGDNLMALAEATIALAEILELKADPTGPVEGTVIESFTDKGRGPVTTAIIQRGTLRKGSILVAGKSWAKVRLIFDENGKILNEAYPSMPVGIIGWRDLPSAGDEILEVESEPRAREVIEWRKSEQKEEKGKDDLKIMEEKRREHQEAHRKAREKYGSLHWKERSYIKFLERKQQRPLKPKEKVERQSNVLPIIIKGDVDGSVEAILNLLDTYDASHECELELVHFGLGDISENDVTFAETFDGVIYGFNVEAGSAIQQSAAQKGVKIKLHKIIYHLIEDLQEELSSRLPHTLEEYPIGEASILATFTVTEGKKKIPVADCRVQKGQLERHKKFKLIRNGQVIWKGSLTSLKHHKDDISVIKTGMDCGLSLDEEKVEFKPGDQVICYEENKVPTKTSWDPGF”, the “soluble on expression in E. coli” value is reported as “soluble”. For “MGAMIVKEVYETAEKIKSMEIRGAGRIARAAAQALMIQAEKSKAKEPEELWNELKVASKILYNTRPTAVSLPNALRYVMHRVKAAYLGGADLETLRFTAINSAKEFIYNSEKAIERIGEIGAKRIEDGDIIMTHCHSKAAISVMKKAFEQGKNIKVIVTETRPKWQGKITAKELASYGIPVIYIVDSAARHYMKMTDKVVMGADSITANGAVINKIGTSLIALTAKEHRVWVMIAAETYKFHPATMLGQLVEIEMRDPTEVIPEEELRTWPKNIEVWNPAFDVTPPEYIDVIITERGIIPPYAAIDILKEEFGWALKYKEPWED”, the “soluble on expression in E. coli” value was “soluble”. For “MSADEPSPEDEKYLESLRDLLKISQEFDASNAKQNDEPEKTAVEVESAETRTDESEKSIDIPREQQLLPSERVEPLKSMVEPEYVKKVIRQMDTMTAEQLKQALMKIKVSTGGNKKTLRKRVAQYYRKENALLNRKMEPNADKTARFFDYLIAIDFECTCVEIIYDYPHEIIELPAVLIDVREMKIISEFRTYVRPVRNPKLSEFCMQFTKIAQETVDAAPYFREALQRLYTWMRKFNLGQKNSRFAFVTDGPHDMWKFMQFQCLLSNIRMPHMFRSFINIKKTFKEKFNGLIKGNGKSGIENMLERLDLSFVGNKHSGLDDATNIAAIAIQMMKLKIELRINQKCSYKENQRSAARKDEERELEDAANVDLTSVDISRRDFQLWMRRLPLKLSSVTRREFINEEYLDCDSCDDLTDDKVKHLHSCDIYEIFDEKTSASFTDSKCLIC”, the “soluble on expression in E. coli” value was “soluble”. In the case of “MGSDKIHHHHHHMSSLPLQKSLYPLLRPLGAAYRVLMRARRRRYENGAACGTDVPCVSVGNIGWGGSGKTPVVQWLLQWAAVHGLHAVVLTRGYKASPPGLPYVVTPQSSAAHAGDEPLMLARSCPQATVVVDPVRSRSARWAQERLAPDFFVLDDGFQHVQVARDTDLVLLKKDDLHAEWGRVLPAGSWREGPEALSRAAAFCIKCGSGEFSGLVPDFENRLGSFGVPVFGFSLRPGALIPVCGAHEGAQLPAGAPYVLFSGVGDPAQVAVTVSSFLGYDPVRHHVFADHHGYTQADMDRMAGYGLPLVCTPKDAVKLTAPCGVPVWTLSLETNFHSVWNAQPPAGQAGEGFAQWWQCRWQRLAGLR”, the “soluble on expression in E. coli” value is reported as “not soluble”. In the case of “SREIDYTAYPWFAGNMERQQTDNLLKSHASGTYLIRERPAEAERFAISIKFNDEVKHIKVVEKDNWIHITEAKKFDSLLELVEYYQCHSLKESFKQLDTTLKYPY”, the “soluble on expression in E. coli” value is reported as “soluble”. For “VSIYLKPIINKLTPESRNTLDSAINYAISRSHHEVDCLHLLWKLLQEHKYIAEVLYEQSLFNPEWVLNAIESELIRINTVPQSSPVFSESMQTLLEKTWIHASTKWQIDHIDIPVFLSTMINFRDSIFPLNVSDALCCDMDVAEELLISFSDEAEHSASHRPTDRSSHEYLSKYTENLSLRAETGKLDPVTGREKEVRQLIDILLRRRQNNPILTGEPGVGKSSIVEGLALQIASGRVPDVLKNVRIHALDMGALLAGASVRGEFENRLKSLLTELNSLDGTAILFIDEAHSLIGAGGLPGQTDAANLLKPALARGELRIIAATTWGEYKKYFEKDGALARRFQIVKVAEPNQDVTAEMLRSLLPMMEKHHNVSIREEAITATVHLSDRYLHGRRQPDKSVSLLDTACSRVAVSQSTSPDAIQDVEASLVRYQGELALLTQERSDVLRQEMLANKIAQLEEELEQLKSAWRHQSELVAKIQSSDDISSKNMYRKELESAYKKDSPMVFECVDKNCVADVVSGWTGVPLGVCLDGEQQKASGLLRCLEQRVLGQRYAMSAIASQVLICRADLKDPVKPDGVFLLAGPSGTGKTETARALAEFVYGDENKLITINMTEFQEAHTVSTLKGAPPGYVGFGQGGTLTERVSHNPYSVILLDEIEKAHPDVLEFFFQIFDSGIIEDAEGKMVSFRDCLIIMTSNFASENITNIWNDGETNRDRIKEMLLPLFNEHFGAAFMGRTNLIPFTPLHSKTLRDIVLIKIDKICQRFEQASGQMYKIEYNDSLIDWITHHCQCDKSGARDIDSVLNSTVLPVLARYLTDSEDNRTPKKIRISVRKNNITLRSSQFATRN”, the “soluble on expression in E. coli” value was “not soluble”. In the case of “MVYVSNKYLTMSEMKVNAQYILNYLSSNGWTKQAICGMLGNMQSESTINPGLWQNLDEGNTSLGFGLVQWTPASNYINWANSQGLPYKNMDSELKRIIWEVNNNAQWINLRDMTFKEYIKSTKTPRELAMIFLASYERPANPNQPERGDQAEYWYKNLSGGGGGGLQLAQFPMDIINISQGENGSFSHKGTLCIDFVGKTEKYPYYAPCDCTCVWRGDASAYLAWTSDKEVMCADGSVRYITWVNVHESPLPFDVGKKLKKGDLMGHTGIGGNVTGDHWHFNVIDGKEYQGWTKKPDSCLAGTELHIYDVFAVNNVEIINGNGYDWKTSDWQDG”, the “soluble on expression in E. coli” value is reported as “soluble”. For “DRPFKVGDWIRSPDRQIEGTVERIGWRMTSIRTFDKRPLYVPNSVFSNIVVENPSRMLNRRIYEVVGLRYDDADKVPEIITAVREMLKNHKDIDTRQT”, the “soluble on expression in E. coli” value was “not soluble”. For “MSLIMSEPPQLTTPDDKDVENRKHSSTYSISNLLLEKKESSPSGSSSEDDSASSNDDDQRSPSATSSFIFPPASSSSSSESATSPTQIMAQLMANGGAVDPGLQAYFFLLQSQLNSQSMMNRVTQENVSRALTSFNLLNNLPGALPSLSPMGRLQHSMQLSPNSLNMQKKQSRPTFTGHQIYQLERKFEQTKYLAGADRAQLAQELNMSESQVKVWFQNRRTKWRKKEAADNALVKRGASGDKSPCSLSPFLSAGI”, the “soluble on expression in E. coli” value was “not soluble”. With “MNPEKNLYPYTQESSLEQALNFEIAQVWHTRSEGTYRSFDKTHIYWCSLKHPEHQKAVVIVNGRIESAWKYQELCYDLFRQGFDVYTYDHRGQGRSERLTEDRQIGHVHEFQDYVTDLKALVEHFDLGHYQERFLLAHSMGGAIATRYIQTTPAHPFSALALSAPMFGVNMPWYLRPWALLITQIMAAVTLKPSYAPGYGPYHAKPFHLNLLTHSETRYQLFRELYEAHPELQIGGPSHRWVWQSLMATKQCLQLTRQIKIPMLILQAGEEAIVCNRAQIRLFKKLSRTQKRAALCRIAGARHELLFEQDAYRNQTLDHILRFFADSTIDHKRQHHRP” the “soluble on expression in E. coli” value was “not soluble”.
